Measurements from paper PMC7118173 (Nature Communications, 2020).

What was measured:
[1] = test system: C. glutamicum ATCC13032 whole-cell extracts; assay: SepF and FtsZ quantification by Western blot; format: cell-based, Corynebacterium glutamicum; conditions: 60 ugr loaded
[2] = target: the molecule itself; assay: turbidity + dynamic light scattering; SepF or SepF mutant with SUVs (POPC:POPG 8:2), 50 µM each, 100 mM KCl, 10 mM MgCl2, 25 mM Pipes pH 6.9, 25 °C
Pino-sepF strain [3] = assay: Cell length distribution (violin plots), Pino-sepF strains; format: cell-based, Corynebacterium glutamicum
Experimental: For imaging, cultures of C. glutamicum were grown in BHI or minimal medium CGXII during the day, and washed and inoculated into CGXII media for overnight growth. The following day cultures were diluted to OD600 = 1 and grown to the required OD (early exponential phase) for imaging. For HADA labeling, cultures were incubated with 0.5 mM HADA for 20 min at 30 °C in the dark. Two percent agarose pads were prepared with the corresponding growth medium and cells were visualized using a Zeiss Axio Observer Z1 microscope fitted with an Orca Flash 4 V2 sCMOS camera (Hamamatsu), and a Pln-Apo 63×/1.4 oil Ph3 objective. Images were collected using Zen Blue 2.6 (Zeiss) and analyzed using the software Fiji[70] and the plugin MicrobeJ[71] to generate violin plots and fluorescent intensity heatmaps. […] The experiments were performed as biological triplicates.

Pino-sepF strain [4] = assay: Growth curves / complementation of the Pino-sepF strain; conditions: SepF depletion with 1% myo-inositol, exogenous construct induced
Experimental: Positive colonies were grown in BHI media supplemented with 25 µg/ml kanamycin overnight at 30 °C and 120 rpm shaking.
All strains were plated in CGXII media plates with 4% (w/v) sucrose as a carbon source for 2 days at 30 °C and then single colonies were inoculated in 10 ml of CGXII media 4% (w/v) sucrose overnight at 30 °C and 120 rpm shaking. The next day, 20 ml of CGXII media supplemented with the appropriate repressor or inducer were inoculated with the overnight cultures to a starting OD600 of 1. OD600 measurements were taken every 1.5 h. Each growth curve represents the average of three different growth curves originally from three different single colonies. […] When required, CGXII media 4% (w/v) sucrose was supplemented with either 1% (w/v) myo-inositol, 50 ng/ml tetracycline or 1% (w/v) gluconate and 25 μg/ml kanamycin.

WT C. glutamicum = assay: Number of ring-like structures per cell, overexpression in WT; format: cell-based, Corynebacterium glutamicum
[5] = Negative stain EM of SepF rings; format: physicochemical; conditions: 50 μM, 50 mM HEPES pH 7.4, 300 mM KCl, 10 mM MgCl2
Experimental: For all samples, 400 mesh carbon coated grids (Electron Microscopy Sciences; CF 400-Cu) were glow-discharged on an ELMO system for 30 sec at 2 mA. 5 µl samples were applied onto the grids and incubated for 30 s, the sample was blotted, washed in 3 drops of water and then stained with 2% (weight/vol) uranyl acetate. Images were recorded on a Gatan UltraScan4000 charged coupled device (CCD) camera (Gatan) on a Tecnai T12 BioTWINLaB6 electron microscope operating at a voltage of 120 kV.

Which results are given for FtsZ: C. glutamicum FtsZ (cg2366)?
band volume in whole-cell extract ([1]; ON S (over-night, sucrose)): 14.8379; band volume in whole-cell extract ([1]; ON S+G (over-night, sucrose + gluconate)): 18.4228; band volume in whole-cell extract ([1]; T6 S (6 h, sucrose)): 20.1825; band volume in whole-cell extract ([1]; T6 S+G (6 h, sucrose + gluconate)): 23.8045

B1: full-length C. glutamicum SepF (recombinant) (natural protein, Corynebacterium glutamicum, UniProt Q8NNN6 1-152, looked up)
chain: MSMLKKTKEFFGLAPYEAEHEDAYYADEPRYEGTAAYAPEYRERDYGYAPEAPAPVAPSPAPRSYQSTIVPVELHSFEDAQVIGGAFRDGDAVVFDMSLLSREEARRIVDFAAGLCFALRGKMQKIDSVTFAVVPELSNISTSELERAARIR
notes: SepF (cg2363), Corynebacterium glutamicum, full length; source: E. coli BL21 (DE3), purified (Ni-NTA, SUMO protease, SEC); not shown: His6, N-terminal, cleaved; SUMO, N-terminal, cleaved
Does B1 bind [2]?
Result: binds

B2: SepF-Scarlet: mScarlet-I fused on the C-terminal side of SepF (protein)
chain: MSMLKKTKEFFGLAPYEAEHEDAYYADEPRYEGTAAYAPEYRERDYGYAPEAPAPVAPSPAPRSYQSTIVPVELHSFEDAQVIGGAFRDGDAVVFDMSLLSREEARRIVDFAAGLCFALRGKMQKIDSVTFAVVPELSNISTSELERAARIR
modifications: left off: mScarlet-I, C-terminal, kept
With B2 as the molecule, how does the mean cell length (Pino-sepF strain [3]; 1% myo-inositol + 1% gluconate, t = 6, replicate 1, listed as PgntK_SepF_Scarlet) read?
Its mean cell length is 5.38.

And the “cell elongation on complementation” value (Pino-sepF strain [3]; PgntK, compared with control cells)?
Its value is “cells were more elongated than control cells”.

And the “complementation of SepF depletion (growth)” value (Pino-sepF strain [4])?
Its value is “complemented the SepF depletion strain for growth”.

What about the “frequency of cells with n septa (ring-like structures)” value (“frequency of cells with n septa” below) (WT C. glutamicum; n septa 0, replicate 1) of the same molecule?
Its value is 0.369.

What about the “frequency of cells with n septa” value (WT C. glutamicum; n septa 0, replicate 2) of the same molecule?
Its value is 0.283.

And the “frequency of cells with n septa” value (WT C. glutamicum; n septa 0, replicate 3)?
Its value is 0.282.

And the “frequency of cells with n septa” value (WT C. glutamicum; n septa 1, replicate 1)?
The value was 0.513.

And the “frequency of cells with n septa” value (WT C. glutamicum; n septa 1, replicate 2)?
Its value is 0.547.

And the “frequency of cells with n septa” value (WT C. glutamicum; n septa 1, replicate 3)?
The value was 0.565.

And the “frequency of cells with n septa” value (WT C. glutamicum; n septa 2, replicate 1)?
Its value is 0.104.

And the “frequency of cells with n septa” value (WT C. glutamicum; n septa 2, replicate 2)?
Its value is 0.153.

What about the “frequency of cells with n septa” value (WT C. glutamicum; n septa 2, replicate 3) of the same molecule?
The value was 0.127.

And the “frequency of cells with n septa” value (WT C. glutamicum; n septa 3, replicate 1)?
Its value is 0.014.

And the “frequency of cells with n septa” value (WT C. glutamicum; n septa 3, replicate 2)?
Its value is 0.017.

And the “frequency of cells with n septa” value (WT C. glutamicum; n septa 3, replicate 3)?
Its value is 0.025.

And the “frequency of cells with n septa” value (WT C. glutamicum; n septa 4, replicate 1)?
The value was 0.

What about the “frequency of cells with n septa” value (WT C. glutamicum; n septa 4, replicate 2) of the same molecule?
The value was 0.

And the “frequency of cells with n septa” value (WT C. glutamicum; n septa 4, replicate 3)?
The value was 0.

And the “frequency of cells with n septa” value (WT C. glutamicum; n septa 5, replicate 1)?
The value was 0.

What about the “frequency of cells with n septa” value (WT C. glutamicum; n septa 5, replicate 2) of the same molecule?
Its value is 0.

And the “frequency of cells with n septa” value (WT C. glutamicum; n septa 5, replicate 3)?
Its value is 0.

What about the “frequency of cells with n septa” value (WT C. glutamicum; n septa 6, replicate 1) of the same molecule?
Its value is 0.

What about the “frequency of cells with n septa” value (WT C. glutamicum; n septa 6, replicate 2) of the same molecule?
Its value is 0.

What about the “frequency of cells with n septa” value (WT C. glutamicum; n septa 6, replicate 3) of the same molecule?
The value was 0.

And the “frequency of cells with n septa” value (WT C. glutamicum; n septa 7, replicate 1)?
The value was 0.

And the “frequency of cells with n septa” value (WT C. glutamicum; n septa 7, replicate 2)?
The value was 0.

And the “frequency of cells with n septa” value (WT C. glutamicum; n septa 7, replicate 3)?
Its value is 0.

And the “ring-like structures per cell” value (WT C. glutamicum; overexpression in WT background)?
Its value is “mostly single rings at mid-cell”.

B3: M. tuberculosis SepFΔML (domain or fragment)
chain: EDGHPLSKITTLRPKDYSEARTIGERFRDGSPVIMDLVSMDNADAKRLVDFAAGLAFALRGSFDKVATKVFLLSPADVDVSPEERRRIAETGFYAYQ
notes: also called MtbSepFΔML
With B3 as the molecule, how does the ring diameter [5] read?
Its ring diameter is ~ 40 nm.

B4: SepFΔα3 (domain or fragment, Corynebacterium glutamicum, UniProt Q8NNN6 1-137, looked up)
chain: MSMLKKTKEFFGLAPYEAEHEDAYYADEPRYEGTAAYAPEYRERDYGYAPEAPAPVAPSPAPRSYQSTIVPVELHSFEDAQVIGGAFRDGDAVVFDMSLLSREEARRIVDFAAGLCFALRGKMQKIDSVTFAVVPEL
notes: SepF (cg2363), Corynebacterium glutamicum, amino acids 1 to 137 (without the C-terminal helix α3); source: E. coli BL21 (DE3), purified (Ni-NTA, SUMO protease, SEC); not shown: His6, N-terminal, cleaved; SUMO, N-terminal, cleaved
Does B4 bind [2]?
Result: binds
